From patent US20220251211A1 (BEIJING SINOTAU BIO PHARMACEUTICALS TECHNOLOGY, published 2022)

B1: m1F11 (murine anti-PD-L1 antibody from hybridoma clone 1F11) (antibody, V domains shown)
VH: QGQMQQSGAELVKPGASVKLSCKTSGFTFSSSYISWLKQKSGQSLEWIAWIYAGTGGTGYNQKFTGKAQLTVDTSSSTAYMQFSSLTTEDSAIYYCAISASYRYDDLFAYWGQGTLVTVSA
VL: QIVLTQSPAIMSASPGEKVTMTCSASSSVSSMHWYQQKSGTSPKRWIYDTSKLASGVPARFSGSGSGTSYSLTISSMETEDAATYYCQQWNSNPPTFGAGTKLELK
notes: Recombinant murine antibody expressed in CHO-S cells and used APC-labeled in the assays; also called 1F11-APC; murine version 1F11
B2: humanized 1F11 (hu1F11) (antibody, human IgG1, kappa, N297A, V domains shown)
VH: QVQLQQSGAELVKPGASVKLSCKTSGFTFSSSYISWVKQSSGQGLEWIAWIYAGTGGTGYNQKFTGRASITVDTSTSTAYMQLSSLTSEDTAIYYCAISASYRYDDLFAYWGQGTLVTVSS
VL: QIVLTQSPASVSASPGEKVTITCSASSSVSSVHWYQQKSGTSPKRWIYDTSKLASGVPARFSGSGSGTSYSLTISSMETEDVATYYCQQWNSNPPTFGTGTKLEIKR
notes: Expressed in 293T cells; also called huIF11; humanized IF11

How the values were obtained:
[1] = target: T1, Mouse PD-L1-his (50010-MO8H, Sino Biological) (mouse, UniProt Q9EP73 19-238); test: ELISA, m1F11 on recombinant mouse PD-L1, luminescence as percent of the highest value
T1 construct: Bought reagent; also called murine PD-L1; soluble mouse PD-L1; not shown: His tag

[2] = target: T2, Human PD-L1-hFc (B3040, Biointron Biological Inc.) (human, UniProt Q9NZQ7 19-238, limits assumed); test: ELISA, recombinant human PD-L1, APC-labeled m1F11; recombinant human PD-L1, ELISA
T2 construct: also called recombinant human PD-L1-Fc; hu-PD-L1-Fc; not shown: human Fc of the bought fusion
T2 sequence (Q9NZQ7 19-238 limits assumed): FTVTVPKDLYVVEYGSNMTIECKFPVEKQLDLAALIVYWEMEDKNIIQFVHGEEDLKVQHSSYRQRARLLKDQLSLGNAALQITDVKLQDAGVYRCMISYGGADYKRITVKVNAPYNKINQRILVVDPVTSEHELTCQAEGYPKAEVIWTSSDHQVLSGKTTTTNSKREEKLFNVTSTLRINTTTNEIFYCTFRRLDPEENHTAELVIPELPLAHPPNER

[3] = target: T3, human PD-L1 on the cell surface (SP2/0 PD-L1 cells stably expressing human PD-L1); also human tumor cell lines … (human, UniProt Q9NZQ7 19-290); test: flow cytometry, APC-labeled m1F11 on SP2/0 PD-L1 cells
T3 construct: whole, on cells; also called membrane huPD-L1; cell surface PD-L1

[4] = target: T4, Cynomolgus PD-L1-his (90251-C08H, Sino Biological) (cynomolgus, UniProt G7PSE7 19-238); test: ELISA, recombinant cynomolgus PD-L1, APC-labeled m1F11
T4 construct: Bought reagent; also called monkey PD-L1; soluble monkey PD-L1
T4 sequence (G7PSE7 entry or part of it C08H C08H limits assumed): as the sequence (Q9NZQ7 19-238 limits assumed) above, with A33T, A34S, S62N, R68Q, Q82R, F173L, T185A, T192I, H215L counted along it

[5] = target: T3, human PD-L1 on the cell surface (SP2/0 …); test: flow cytometry on SP2/0 PD-L1 cells pre-incubated with biotin-huPD-1-hFc; bound antibody detected with anti-human kappa-APC
[6] = target: T3, human PD-L1 on the cell surface (SP2/0 …); test: flow cytometry, displacement of pre-bound biotin-huPD-1-hFc from SP2/0 PD-L1 cells, remaining PD-1 detected with streptavidin-FITC
[7] = target: T1, Mouse PD-L1-his (50010-MO8H, Sino …); test: ELISA, hu1F11 on soluble mouse PD-L1, luminescence as percent of the highest value
From the text: Y-axis is the relative luminescence index generated by antibody/antigen binding and x-axis is the logarithm of antibody concentrations (ng/ml).

Row | Binder | binding result [1] | EC50 [2] [µg/mL] | EC50 [3] [µg/mL] | EC50 [4] [µg/mL] | EC50 (read off the curve) [5] [ng/mL] | IC50 (read off the curve) [6] [ng/mL] | binding result [7]
1 | B1 | no binding (tested: log 3.9 on the axis (about 8000 ng/ml)) | 0.0393 | 0.0629 | 0.0464 | – | – | –
2 | B2 | – | – | – | – | ~300 | ~900 | no binding (tested: log 3.6 on the axis (about 4000 ng/ml))
